# Earlier results as cited in publication PMC10024700.
# What was measured:
# [1] = molecular target: Cadherin-23 EC1-2 (Mus musculus) (UniProt Q99PF4); assay: AUC
# [2] = molecular target: Protocadherin-15 EC1-2 (Mus musculus) (UniProt Q99PJ1); assay: ITC
# [3] = molecular target: Protocadherin-15 EC1-2 (Mus musculus) (UniProt Q99PJ1); assay: SPR
substance,measurement,setting,value
Cadherin-23 EC1-2 (from UniProt Q99PF4),Kd,[1],18 µM
same,Kd,[2],2.9 µM
same,Kd,[3],0.84 µM
